Here are results for ten proteins from patent publication US7232671.

Sequences and labels used below:
B1: full-length recombinant S1 with the Arg->Lys mutation at residue 9 (protein)
chain: DDPPATVYKYDSRPPEDVFQNGFTAWGNNDNVLDHLTGRSCQVGSSNSAFVSTSSSRRYTEVYLEHRMQEAVEAERAGRGTGHFIGYIYEVRADNNFYGAASSYFEYVDTYGDNAGRILAGALATYQSEYLAHRRIPPENIRRVTRVYHNGITGETTTTEYSNARYVSQHTRANPNPYTSRRSVASIVGTLVRMAPVIGACMARQAESSEAMAAWSERAGEAMVLVYYESIAYS
B2: S1 mutant 4-1 (Arg9->Lys in S1/6A) (protein)
chain: B1 chain with D1M, D2V
B3: S1/6A (recombinant pertussis toxin S1 analog, parent construction 6A) (protein)
chain: B1 chain with D1M, D2V, K9R
B4: S1 mutant 6-1 (Asp11->Pro, Pro14->Asp in S1/6A) (protein)
chain: B1 chain with D1M, D2V, K9R, D11P, P14D
B5: S1 mutant 3-1 (Asp11->Glu in S1/6A) (protein)
chain: B1 chain with D1M, D2V, K9R, D11E
B6: S1 mutant 8-1 (Tyr8->Leu, Arg9->Glu in S1/6A) (protein)
chain: B1 chain with D1M, D2V, Y8L, K9E
B7: S1 mutant 5-1 (Tyr8->Phe in S1/6A) (protein)
chain: B1 chain with D1M, D2V, Y8F, K9R
B8: S1 mutant 7-2 (Arg9->Asn, Ser12->Gly in S1/6A) (protein)
chain: B1 chain with D1M, D2V, K9N, S12G
B9: S1 mutant 1-1 (Arg13->Lys in S1/6A) (protein)
chain: B1 chain with D1M, D2V, K9R, R13K
B10: S1 mutant 2-2 (Ser12->Gly in S1/6A) (protein)
chain: B1 chain with D1M, D2V, K9R, S12G

Numbering of substitutions follows the chain as printed.

This series concerns the target purified bovine transducin (alpha subunit is the ADP-ribose acceptor), P04695.
Consider B1, for which the transferase activity result is recorded as “transferase activity was reduced by a factor of approximately 1000”.
B2: the ADP-ribosyltransferase activity (cpm) is 754 cpm.
The same measure, in the same setting: the value for B3 was 23400 ± 950 cpm.
Same read-out and setting: the result for B4 reads 764 cpm.
In the case of B5, the ADP-ribosyltransferase activity (cpm) was determined as 13500 ± 1600 cpm.
Still for that read-out and setting: the value for B6 was 926 cpm; that for B7 was 26400 ± 1320 cpm.
The same measure, in the same setting: the result for B8 reads 753 cpm; that for B9, 7390 ± 1370 cpm; that for B10, 22300 ± 2100 cpm.
